Results on one molecule are retold here after patent US20120309939A1 (Scripps Research, published 2012).

For this assay, the target named is T1, human VEGF-R2(KDR):Fc fusion protein (R&D Systems) (human, UniProt P35968 20-764).
T1 construct: Bought reagent, coated on Maxisorp plates; also called VEGF receptor; human VEGF receptor; not shown: Fc part of the bought fusion
Kind of assay: ELISA on plates coated with VEGF-R2(KDR):Fc; bound VEGF detected with biotinylated anti-VEGF. On the technique in general: In an ELISA, binding on a coated surface is turned into a signal by an enzyme label.

T1 sequence (P35968 20-764 limits assumed): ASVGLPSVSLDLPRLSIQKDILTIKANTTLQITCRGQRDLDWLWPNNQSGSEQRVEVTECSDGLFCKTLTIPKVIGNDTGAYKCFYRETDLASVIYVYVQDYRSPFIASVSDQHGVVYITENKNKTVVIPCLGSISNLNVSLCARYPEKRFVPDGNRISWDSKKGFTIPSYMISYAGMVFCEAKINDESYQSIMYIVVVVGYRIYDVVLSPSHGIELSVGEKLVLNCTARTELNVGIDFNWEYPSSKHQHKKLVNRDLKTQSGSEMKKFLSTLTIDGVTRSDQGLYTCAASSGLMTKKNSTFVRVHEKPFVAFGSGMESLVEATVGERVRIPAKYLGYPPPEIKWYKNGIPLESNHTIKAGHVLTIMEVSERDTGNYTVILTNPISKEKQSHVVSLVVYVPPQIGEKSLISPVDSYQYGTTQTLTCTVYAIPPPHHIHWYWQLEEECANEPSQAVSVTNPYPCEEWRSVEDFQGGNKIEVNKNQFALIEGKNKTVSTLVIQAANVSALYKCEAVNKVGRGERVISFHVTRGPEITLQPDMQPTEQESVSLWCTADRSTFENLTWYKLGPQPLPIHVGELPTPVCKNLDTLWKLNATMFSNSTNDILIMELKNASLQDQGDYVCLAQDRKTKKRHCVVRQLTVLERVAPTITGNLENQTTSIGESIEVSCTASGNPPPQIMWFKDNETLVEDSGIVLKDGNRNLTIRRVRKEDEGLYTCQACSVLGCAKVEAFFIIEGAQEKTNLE

B1: algal-expressed human vascular endothelial growth factor (VEGF) isoform 121, without signal peptide, with C-terminal FLAG-tag, made in the C. reinhardtii … (ligand)
chain: MVPAPMAEGGGQNHHEVVKFMDVYQRSYCHPIETLVDIFQEYPDEIEYIFKPSCVPLMRCGGCCNDEGLECVPTEESNITMQIMRIKPHQGQHIGEMSFLQHNKCECRPKKDRARQENCDKPRRGTGENLYFQGSGGGGSDYKDDDDKGTG
notes: Native VEGF is active as a dimer; also called algal VEGF; algae-derived VEGF
For the molecule B1, the binding result is on record as “binds”.
